T1: hNpr3 (Homo sapiens, UniProt P17342)
T1 construct: host or cells: FreeStyle293 cells (transient transfection)
T1 sequence (P17342 27-540 isoform P17342-2 limits assumed): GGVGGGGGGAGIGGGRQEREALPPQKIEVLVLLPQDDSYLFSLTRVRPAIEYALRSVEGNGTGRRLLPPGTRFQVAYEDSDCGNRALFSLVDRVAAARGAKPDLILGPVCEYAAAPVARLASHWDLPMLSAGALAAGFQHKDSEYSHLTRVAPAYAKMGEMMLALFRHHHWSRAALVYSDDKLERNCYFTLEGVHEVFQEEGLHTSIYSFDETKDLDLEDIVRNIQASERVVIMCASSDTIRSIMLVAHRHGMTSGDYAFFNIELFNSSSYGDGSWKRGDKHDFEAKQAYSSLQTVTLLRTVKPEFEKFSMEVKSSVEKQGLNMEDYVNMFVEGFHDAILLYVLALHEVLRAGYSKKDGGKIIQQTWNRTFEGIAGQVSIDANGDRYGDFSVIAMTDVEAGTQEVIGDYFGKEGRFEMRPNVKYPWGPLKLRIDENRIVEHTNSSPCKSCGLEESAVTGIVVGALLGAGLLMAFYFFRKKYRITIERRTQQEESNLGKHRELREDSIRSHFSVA


Target: T1, hNpr3
Assay: Binding of biotin-labeled mMusclin to hNpr3-expressing FreeStyle293 cells (PE-labeled Streptavidin staining), with competition by unlabeled ligands
Settings: for change in the binding of labeled mMusclin in the presence of a known NPR3 ligand: competitor at 10 μM; for change in the binding of labeled mMusclin in the presence of a known NPR3 ligand / change in the binding of labeled mMusclin in the presence of the unlabeled protein: BK- or BC-labeled mMusclin 0.5 μg/ml, hNpr3-expressing FreeStyle293 cells; for change in the binding of labeled mMusclin in the presence of the unlabeled protein: competitor at 100 μg/ml; for binding of labeled mMusclin to cells transfected with hNpr3 expression vector: 0.5 μg/ml labeled mMusclin, 4° C. 30 minutes, 0.3 μg (Low) or 1.0 μg (high) hNpr3 vector per 1.0×10^6 FreeStyle293 cells
Procedure: A hNpr3 expression vector (hNpr3/pCMV6-XL4, NM_000908 Clone #PL1154_A07) was purchased from OriGene. 0.3 μg (Low) or 1.0 μg (high) of the hNpr3 expression vector was transfected transiently per 1.0×10^6 FreeStyle293 cells by a conventional method; 48 hours later, the cells were collected and suspended in PBS-1.0% BSA at 5×10^6 cells/ml. A 1-ml portion of each cell lyzate was incubated with a final concentration of 0.5 μg/ml of BK-mMusclin or BC-mMusclin at 4° C. for 30 minutes; after 1 time of washing, the lyzate was stained with PE-labeled Streptavidin, and the cells bound to each Musclin were analyzed. Also, incubation was performed in the presence of 100 μg/ml full-length mMusclin, mCA, or His-Tyr-Cys-mMusclin, or 10 μM ANP (Atrial Natriuretic Peptide, Rat, Mouse), CANP (Atrial Natriuretic Peptide 4-23—NH2 Des-[Gln18 Ser19 Gly20 Leu21 Gly22], Rat), or LANP (Atrial Natriuretic Peptide 104-126 Des-[Cys105 Cys121], Rat) (Phoenix Pharmaceuticals, Inc.), whereby changes in the binding of labeled mMusclin were examined.

Molecule	change in the binding of labeled mMusclin in the presence of the unlabeled protein	change in the binding of labeled mMusclin in the presence of a known NPR3 ligand	other results
Atrial Natriuretic Peptide 4-23—NH2 Des-[Gln18 Ser19 Gly20 Leu21 Gly22], Rat [CANP, reference compound]		the binding nearly disappeared	
Atrial Natriuretic Peptide 104-126 Des-[Cys105 Cys121], Rat (SFGGRIDRIGAQSGLGNSFRY) [LANP, known ligand of the NPR3 molecule (Phoenix Pharmaceuticals, Inc.), reference compound]		the binding nearly disappeared	
Atrial Natriuretic Peptide, Rat, Mouse (SLRRSSCFGGRIDRIGAQSGLGCNSFRY) [ANP, known ligand of the NPR3 molecule (Phoenix Pharmaceuticals, Inc.), reference compound]		the binding nearly disappeared	
BC-labeled mMusclin: His-Tyr-Cys-mMusclin labeled with about 1 molecule of biotin at the introduced Cys residue (Maleimide PEO2 Biotin) (protein) MGSSHHHHHHSSGLVPYGCHMLASQEFGTASLQSPPTAREEKSATELSAKLLRLDDLVSLENDVFETKKKRSFSGFGSPLDRLSAGSVEHRGKQRKAVDHSKKRFGIPMDRIGRNRLSSSRG			binding of labeled mMusclin to cells transfected with hNpr3 expression vector: bound dependently on the amount of the hNpr3 gene introduced into the cells
BK-labeled mMusclin: labeled mMusclin incorporating about 5 molecules of biotin/1 molecule of mMusclin (Sulfo-NHS-LC-Biotin) (protein) LASQEFGTASLQSPPTAREEKSATELSAKLLRLDDLVSLENDVFETKKKRSFSGFGSPLDRLSAGSVEHRGKQRKAVDHSKKRFGIPMDRIGRNRLSSSRG			binding of labeled mMusclin to cells transfected with hNpr3 expression vector: bound dependently on the amount of the hNpr3 gene introduced into the cells
musclin: skeletal muscle specific secretory protein (protein, UniProt P61366 28-133, looked up) Osteocrin: VDVTTTEAFDSGVIDVQSTPTVREEKSATDLTAKLLLLDELVSLENDVIETKKKRSFSGFGSPLDRLSAGSVDHKGKQRKVVDHPKRRFGIPMDRIGRNRLSNSRG			bindability of musclin to natriuretic peptide receptors (NPR1, NPR2, NPR3) (summary statement): binds specifically to the receptor NPR3

Further lines, with some results ahead:

change in the binding of labeled mMusclin in the presence of the unlabeled protein	Molecule	change in the binding of labeled mMusclin in the presence of a known NPR3 ligand	other results
the binding nearly disappeared	mCA: C-Terminal mMusclin (mCA) protein, cleaved from thioredoxin fusion (SFSGFGSPLDRLSAGSVEHRGKQRKAVDHSKKRFGIPMDRIGRNRLSSSRG)		
the binding nearly disappeared	His-Tyr-Cys-mMusclin: His-tag Tyr Cys mouse musclin protein, ORF of SEQ ID NO:8 (protein, His-tag, Tyr, Cys) MGSSHHHHHHSSGLVPYGCHMLASQEFGTASLQSPPTAREEKSATELSAKLLRLDDLVSLENDVFETKKKRSFSGFGSPLDRLSAGSVEHRGKQRKAVDHSKKRFGIPMDRIGRNRLSSSRG		
the binding nearly disappeared	full-length mMusclin: purified full-length mouse musclin protein, cleaved from thioredoxin fusion, expressed in Escherichia coli (protein) LASQEFGTASLQSPPTAREEKSATELSAKLLRLDDLVSLENDVFETKKKRSFSGFGSPLDRLSAGSVEHRGKQRKAVDHSKKRFGIPMDRIGRNRLSSSRG		

— US20110104705A1, “Musclin receptor and use thereof” (Takeda Pharmaceutical Company Limited, priority 2006, published 2011)
